Patent US20250002610A1 (Genmab, published 2025)

T1: human DR4 (Death Receptor 4), cell surface expressed on human tumor cell lines (human, UniProt O00220 24-468)
T1 construct: also called TNFRSF10A; TRAIL-R1
T1 sequence: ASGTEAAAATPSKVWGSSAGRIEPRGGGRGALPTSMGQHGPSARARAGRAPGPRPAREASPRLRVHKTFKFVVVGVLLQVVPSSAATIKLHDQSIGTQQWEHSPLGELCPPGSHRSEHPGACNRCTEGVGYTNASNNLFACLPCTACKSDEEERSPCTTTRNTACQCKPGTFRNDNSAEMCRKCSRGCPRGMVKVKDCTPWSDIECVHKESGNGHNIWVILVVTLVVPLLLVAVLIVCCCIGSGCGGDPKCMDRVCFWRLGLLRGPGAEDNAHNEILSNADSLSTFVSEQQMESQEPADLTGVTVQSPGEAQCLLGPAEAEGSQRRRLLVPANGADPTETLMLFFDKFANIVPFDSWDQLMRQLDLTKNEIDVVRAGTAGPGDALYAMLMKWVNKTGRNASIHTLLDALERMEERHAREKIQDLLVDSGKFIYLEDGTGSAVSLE

B1: IgG1-DR4-FERR (antibody, V domains shown)
VH: QVQLQESGPGLVKPSGTLSLTCAVSGGSISSYSWWSWIRQPPGKGLEWIGELYHSGSTNYNPSLKSRVTISVDKSKNQFSLKLRSVTAADTAVYYCVRGVATIDYWGQGTLVTVSS
VL: QSALTQPPSASGSPGQSVTISCTGTSSDVGGYNFVSWYQQDPGKAPKLLIYEVTKRPSGVPDRFSGSKSGNTASLTVSGLQAEDEADYYCSSYAGSNNVMFGGGTKLTVLG
notes: Bivalent monoclonal IgG1 lambda
B2: BisG1-b12-FERL/DR4-FERR (bispecific antibody, human IgG1, kappa, lambda)
heavy 1: QVQLVQSGAEVKKPGASVKVSCQASGYRFSNFVIHWVRQAPGQRFEWMGWINPYNGNKEFSAKFQDRVTFTADTSANTAYMELRSLRSADTAVYYCARVGPYSWDDSPQDNYYMDVWGKGTTVIVSSASTKGPSVFPLAPSSKSTSGGTAALGCLVKDYFPEPVTVSWNSGALTSGVHTFPAVLQSSGLYSLSSVVTVPSSSLGTQTYICNVNHKPSNTKVDKRVEPKSCDKTHTCPPCPAPEFERGPSVFLFPPKPKDTLMISRTPEVTCVVVDVSHEDPEVKFNWYVDGVEVHNAKTKPREEQYNSTYRVVSVLTVLHQDWLNGKEYKCKVSNKALPAPIEKTISKAKGQPREPQVYTLPPSREEMTKNQVSLTCLVKGFYPSDIAVEWESNGQPENNYKTTPPVLDSDGSFLLYSKLTVDKSRWQQGNVFSCSVMHEALHNHYTQKSLSLSPG
light 1: EIVLTQSPGTLSLSPGERATFSCRSSHSIRSRRVAWYQHKPGQAPRLVIHGVSNRASGISDRFSGSGSGTDFTLTITRVEPEDFALYYCQVYGASSYTFGQGTKLERKRTVAAPSVFIFPPSDEQLKSGTASVVCLLNNFYPREAKVQWKVDNALQSGNSQESVTEQDSKDSTYSLSSTLTLSKADYEKHKVYACEVTHQGLSSPVTKSFNRGEC
heavy 2: QVQLQESGPGLVKPSGTLSLTCAVSGGSISSYSWWSWIRQPPGKGLEWIGELYHSGSTNYNPSLKSRVTISVDKSKNQFSLKLRSVTAADTAVYYCVRGVATIDYWGQGTLVTVSSASTKGPSVFPLAPSSKSTSGGTAALGCLVKDYFPEPVTVSWNSGALTSGVHTFPAVLQSSGLYSLSSVVTVPSSSLGTQTYICNVNHKPSNTKVDKRVEPKSCDKTHTCPPCPAPEFERGPSVFLFPPKPKDTLMISRTPEVTCVVVDVSHEDPEVKFNWYVDGVEVHNAKTKPREEQYNSTYRVVSVLTVLHQDWLNGKEYKCKVSNKALPAPIEKTISKAKGQPREPQVYTLPPSREEMTKNQVSLTCLVKGFYPSDIAVEWESNGQPENNYKTTPPVLDSDGSFFLYSRLTVDKSRWQQGNVFSCSVMHEALHNHYTQKSLSLSPG
light 2: QSALTQPPSASGSPGQSVTISCTGTSSDVGGYNFVSWYQQDPGKAPKLLIYEVTKRPSGVPDRFSGSKSGNTASLTVSGLQAEDEADYYCSSYAGSNNVMFGGGTKLTVLGQPKAAPSVTLFPPSSEELQANKATLVCLISDFYPGAVTVAWKADSSPVKAGVETTTPSKQSNNKYAASSYLSLTPEQWKSHRSYSCQVTHEGSTVEKTVAPTECS
notes: Fab-arm exchange of IgG1-b12-FERL and IgG1-DR4-FERR; also called bsIgG1-ctrl-FERLxDR4-FERR

Legend:
[1] = target: T1, human DR4 (Death Receptor 4), cell …; experiment: flow cytometry, MDA-MB-231 cells, n = 3
[2] = target: T2, human DR4 with death domain deletion on ExpiCHO-S cells (human); experiment: flow cytometry, ExpiCHO-S cells expressing human DR4, n = 2
Protocol: (§1) Binding of BisG1-FAPα-FERL/DR4-FERR, BisG1-DR4-FEAL/b12-FEAR and IgG1-DR4-FERR to DR4 of various species commonly used for nonclinical toxicology studies was assessed by flow cytometry using ExpiCHO-S cells transiently expressing DR4 from different animal species. In contrast to other species, rodents only express one DR which has highest homology with human DR5. Therefore, ExpiCHO-S cells transiently expressing rat and mouse DR protein were used instead. All DR constructs lack the intracellular DD to avoid apoptosis of transfected cells upon DR(4) activation. IgG1-b12 was used as negative control.

[3] = target: T2, human DR4 with death domain deletion on …; experiment: flow cytometry, ExpiCHO-S cells expressing human DR4, average ± SEM
Target sequence in this assay (chain, as listed by the source limits assumed, stated change not applied): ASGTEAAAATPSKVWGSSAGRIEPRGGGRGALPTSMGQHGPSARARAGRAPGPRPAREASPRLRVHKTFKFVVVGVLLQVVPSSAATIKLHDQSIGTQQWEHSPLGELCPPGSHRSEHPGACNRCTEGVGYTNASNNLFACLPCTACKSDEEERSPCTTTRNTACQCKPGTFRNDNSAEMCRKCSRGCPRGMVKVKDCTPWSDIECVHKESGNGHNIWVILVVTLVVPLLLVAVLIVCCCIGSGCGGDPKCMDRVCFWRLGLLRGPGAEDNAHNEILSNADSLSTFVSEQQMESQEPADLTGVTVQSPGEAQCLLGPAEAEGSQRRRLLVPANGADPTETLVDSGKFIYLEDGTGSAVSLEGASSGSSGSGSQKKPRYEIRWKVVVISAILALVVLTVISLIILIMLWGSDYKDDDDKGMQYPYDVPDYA

[4] = target: T2, human DR4 with death domain deletion on …; experiment: flow cytometry, ExpiCHO-S cells expressing human DR4, n = 1
Protocol: as §1

[5] = target: T2, human DR4 with death domain deletion on …; experiment: flow cytometry, ExpiCHO-S cells expressing human DR4, n = 3
Protocol: as §1
Target sequence in this assay (chain, as listed by the source limits assumed, stated change not applied): as above

Row | Binder | EC50 [1] [µg/mL] | EC50 [2] [µg/mL] | EC50 [3] [µg/mL] | EC50 [4] [µg/mL] | EC50 [5] [µg/mL]
1 | B1 | 0.37 | 0.06 | 0.14 | 0.33 | 0.04
2 | B2 | 0.92 |  |  |  | 
